Measurements from article PMC12394151 (2025).

Assays:
Assay in all cases: BLI
GP13-Fc = GP13-Fc (llama (Lama glama))
GP20-Fc = GP20-Fc (llama (Lama glama))
GP11-Fc = GP11-Fc (llama (Lama glama))
GP01-Fc = GP01-Fc (llama (Lama glama))

- koff (GP13-Fc): 0.00288 s⁻¹
- koff (GP20-Fc): 0.000737 s⁻¹
- koff (GP11-Fc): 0.00042 s⁻¹
- koff (GP01-Fc): 0.00223 s⁻¹
B1: recombinant human gp130 with His-tag (Acro, ILT-H52H2) (receptor)
chain: ELLDPCGYISPESPVVQLHSNFTAVCVLKEKCMDYFHVNANYIVWKTNHFTIPKEQYTIINRTASSVTFTDIASLNIQLTCNILTFGQLEQNVYGITIISGLPPEKPKNLSCIVNEGKKMRCEWDGGRETHLETNFTLKSEWATHKFADCKAKRDTPTSCTVDYSTVYFVNIEVWVEAENALGKVTSDHINFDPVYKVKPNPPHNLSVINSEELSSILKLTWTNPSIKSVIILKYNIQYRTKDASTWSQIPPEDTASTRSSFTVQDLKPFTEYVFRIRCMKEDGKGYWSDWSEEASGITYEDRPSKAPSFWYKIDPSHTQGYRTVQLVWKTLPPFEANGKILDYEVTLTRWKSHLQNYTVNATKLTVNLTNDRYLATLTVRNLVGKSDAAVLTIPACDFQATHPVMDLKAFPKDNMLWVEWTTPRESVKKYILEWCVLSDKAPCITDWQQEDGTVHRTYLRGNLAESKCYLITVTPVYADGPGSPESIKAYLKQAPPSKGPTVRTKKVGKNEAVLEWDQLPVDVQNGFIRNYTIFYRTIIGNETAVNVDSSHTEYTLSSLTSDTLYMVRMAAYTDEGGKDGPEFTFTTPKFAQGEIE
